As a reminder, the Km is the substrate concentration at which the rate is half of its maximum. As a reminder, the kcat is the maximal rate divided by the concentration of active sites. For orientation: kcat/Km means the second-order rate constant that governs catalysis at low substrate concentration.

Our source for the Km, kcat and kcat/Km values is publication PMC2661844, “HD-PTP Is a Catalytically Inactive Tyrosine Phosphatase Due to a Conserved Divergence in Its Phosphatase Domain” (PLoS ONE, 2009).

Substrate in series [1]: Cc1cc(=O)oc2c(F)c(OP(=O)(O)O)c(F)cc12
As to the kind of experiment: fluorogenic DiFMUP hydrolysis, Michaelis-Menten fit. In kind it is biochemical, Homo sapiens. As to conditions: 50 mM Hepes, 3 mM DTT, 0.1 mg/ml BSA, pH 6.5, 37 °C, DiFMUP 0-300 µM, wild type inactive. The text has this: fluorogenic DiFMUP hydrolysis, Michaelis-Menten fit on Flag-HD-PTP catalytic domain (CD)

Substrate in series [2]: Cc1cc(=O)oc2c(F)c(OP(=O)(O)O)c(F)cc12
The description is as above. In kind it is biochemical, Homo sapiens. The following applies: 50 mM Hepes, 3 mM DTT, 0.1 mg/ml BSA, pH 6.5, 37 °C, DiFMUP 0-300 µM, wild type inactive. From the text:
fluorogenic DiFMUP hydrolysis, Michaelis-Menten fit on Flag-HD-PTP full-length (HD)
This is another data set of the same source.

B1: Flag-HD-PTP catalytic domain (CD) (Homo sapiens; S1394A) (protein)
chain: ERLRQLQQELEAFRGQLGDVGALDTVWRELQDAQEHDARGRSIAIARCYSLKNRHQDVMPYDSNRVVLRSGKDDYINASCVEGLSPYCPPLVATQAPLPGTAADFWLMVHEQKVSVIVMLVSEAEMEKQKVARYFPTERGQPMVHGALSLALSSVRSTETHVERVLSLQFRDQSLKRSLVHLHFPTWPELGLPDSPSNLLRFIQEVHAHYLHQRPLHTPIIVHCSAGVGRTGAFALLYAAVQEVEAGNGIPELPQLVRRMRQQRKHMLQEKLHLRFCYEAVVRHVEQVLQRH
notes: PTP catalytic domain, residues 1169-1460, 2xFlag tag kept, expressed in HEK 293T, anti-Flag purified
Turning to B1, in series [1], the Michaelis constant (Km) stood at 18 µM and the kcat was 0.1 s⁻¹.

B2: Flag-HD-PTP full-length (HD) (Homo sapiens; S1394A) (protein)
chain: MEAVPRMPMIWLDLKEAGDFHFQPAVKKFVLKNYGENPEAYNEELKKLELLRQNAVRVPRDFEGCSVLRKYLGQLHYLQSRVPMGSGQEAAVPVTWTEIFSGKSVAHEDIKYEQACILYNLGALHSMLGAMDKRVSEEGMKVSCTHFQCAAGAFAYLREHFPQAYSVDMSRQILTLNVNLMLGQAQECLLEKSMLDNRKSFLVARISAQVVDYYKEACRALENPDTASLLGRIQKDWKKLVQMKIYYFAAVAHLHMGKQAEEQQKFGERVAYFQSALDKLNEAIKLAKGQPDTVQDALRFTMDVIGGKYNSAKKDNDFIYHEAVPALDTLQPVKGAPLVKPLPVNPTDPAVTGPDIFAKLVPMAAHEASSLYSEEKAKLLREMMAKIEDKNEVLDQFMDSMQLDPETVDNLDAYSHIPPQLMEKCAALSVRPDTVRNLVQSMQVLSGVFTDVEASLKDIRDLLEEDELLEQKFQEAVGQAGAISITSKAELAEVRREWAKYMEVHEKASFTNSELHRAMNLHVGNLRLLSGPLDQVRAALPTPALSPEDKAVLQNLKRILAKVQEMRDQRVSLEQQLRELIQKDDITASLVTTDHSEMKKLFEEQLKKYDQLKVYLEQNLAAQDRVLCALTEANVQYAAVRRVLSDLDQKWNSTLQTLVASYEAYEDLMKKSQEGRDFYADLESKVAALLERTQSTCQAREAARQQLLDRELKKKPPPRPTAPKPLLPRREESEAVEAGDPPEELRSLPPDMVAGPRLPDTFLGSATPLHFPPSPFPSSTGPGPHYLSGPLPPGTYSGPTQLIQPRAPGPHAMPVAPGPALYPAPAYTPELGLVPRSSPQHGVVSSPYVGVGPAPPVAGLPSAPPPQFSGPELAMAVRPATTTVDSIQAPIPSHTAPRPNPTPAPPPPCFPVPPPQPLPTPYTYPAGAKQPIPAQHHFSSGIPAGFPAPRIGPQPQPHPQPHPSQAFGPQPPQQPLPLQHPHLFPPQAPGLLPPQSPYPYAPQPGVLGQPPPPLHTQLYPGPAQDPLPAHSGALPFPSPGPPQPPHPPLAYGPAPSTRPMGPQAAPLTIRGPSSAGQSTPSPHLVPSPAPSPGPGPVPPRPPAAEPPPCLRRGAAAADLLSSSPESQHGGTQSPGGGQPLLQPTKVDAAEGRRPQALRLIERDPYEHPERLRQLQQELEAFRGQLGDVGALDTVWRELQDAQEHDARGRSIAIARCYSLKNRHQDVMPYDSNRVVLRSGKDDYINASCVEGLSPYCPPLVATQAPLPGTAADFWLMVHEQKVSVIVMLVSEAEMEKQKVARYFPTERGQPMVHGALSLALSSVRSTETHVERVLSLQFRDQSLKRSLVHLHFPTWPELGLPDSPSNLLRFIQEVHAHYLHQRPLHTPIIVHCSAGVGRTGAFALLYAAVQEVEAGNGIPELPQLVRRMRQQRKHMLQEKLHLRFCYEAVVRHVEQVLQRHGVPPPCKPLASASISQKNHLPQDSQDLVLGGDVPISSIQATIAKLSIRPPGGLESPVASLPGPAEPPGLPPASLPESTPIPSSSPPPLSSPLPEAPQPKEEPPVPEAPSSGPPSSSLELLASLTPEAFSLDSSLRGKQRMSKHNFLQAHNGQGLRATRPSDDPLSLLDPLWTLNKT
notes: full length, residues 1-1636, 2xFlag tag kept, expressed in HEK 293T, anti-Flag purified
Regarding B2, in series [2], the Km was found to be 28 µM, the kcat was 0.2 s⁻¹ and the kcat/Km came to 6000 M⁻¹ s⁻¹.
